Measurements as given in patent publication US20210040201A1 (Innovent, published 2021).
Like-named read-outs stand apart in the source and are kept apart here.

T1: Human TIGIT expressed on the surface of cells (human, UniProt Q495A1 22-244)
T1 sequence: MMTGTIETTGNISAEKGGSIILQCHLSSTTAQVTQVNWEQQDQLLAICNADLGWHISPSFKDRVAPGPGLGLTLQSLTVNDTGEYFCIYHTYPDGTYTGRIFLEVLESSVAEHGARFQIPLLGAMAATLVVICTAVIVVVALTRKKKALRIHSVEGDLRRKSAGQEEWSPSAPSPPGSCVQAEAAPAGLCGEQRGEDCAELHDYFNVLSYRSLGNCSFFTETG

T2: Human TIGIT-his (ACRO, TIT-H52H3) (human, UniProt Q495A1 22-141)
T2 construct: Bought protein
T2 sequence: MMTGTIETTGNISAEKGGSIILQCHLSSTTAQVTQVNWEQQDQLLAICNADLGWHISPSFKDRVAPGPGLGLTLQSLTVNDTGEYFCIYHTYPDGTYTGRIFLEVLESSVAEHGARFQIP

B1: 31C6 (anti-human TIGIT reference antibody from Merck) (antibody, V domains shown)
VH: EVQLVQSGAEVKKPGASVKVSCKASGYTFSSYVMHWVRQAPGQGLEWIGYIDPYNDGAKYAQKFQGRVTLTSDKSTSTVYMELSSLRSEDTAVYYCARGGPYGWYFDVWGQGTTVTVSS
VL: DIQMTQSPSSLSASVGDRVTITCRASEHIYSYLSWYQQKPGKAPKLLIYNAKTLAEGVPSRFSGSGSGTDFTLTISSLQPEDFATYYCQHHFGSPLTFGQGTRLEIK
B2: 22G2 (anti-human TIGIT reference antibody from BMS) (antibody, V domains shown)
VH: QVHLQESGPGLVKPSETLSLTCTVSGGSVSSGIYYWSWIRQPPGKGLEWIGYIYYSGSTNYNPSLKSRVTISVDTSKNQFSLKLSSVTAADTAVYYCARDYYVSGNYYNVDYYFFGVDVWGQGTTVTVSS
VL: EIVLTQSPATLSLSPGERATLSCRASQSVSSYLAWYQQKPGQAPRLLIYDASNRATGIPARFSGSGSGTDFTLTISSLEPEDFAVYYCQQRSNWPPLFTFGPGTKVDIK

Assays:
[1] = target: T1, Human TIGIT expressed on the surface of …; assay: cell-based or functional assay
[2] = target: T1, Human TIGIT expressed on the surface of …; assay: cell-based or functional assay; remark: listed apart in the source
[3] = target: T1, Human TIGIT expressed on the surface of …; assay: flow cytometry on CHOS cells expressing human TIGIT; reference antibody
[4] = target: T2, Human TIGIT-his (ACRO, TIT-H52H3); assay: BLI (ForteBio), antibody loaded on AHQ sensor, 100 nM TIGIT-his, 1:1 model, monovalent
[5] = target: T3, Monkey TIGIT-his (ACRO, TIT-05223) (monkey); assay: as above
T3 construct: Bought protein

[6] = target: T1, Human TIGIT expressed on the surface of …; assay: flow cytometry on CHO cells overexpressing human TIGIT; reference antibody in the run with CHO-expressed antibodies
[7] = target: T1, Human TIGIT expressed on the surface of …; assay: flow cytometry competition against 50 nM human CD155-mouse IgG2a Fc on CHOS cells expressing human TIGIT; positive control
[8] = target: T1, Human TIGIT expressed on the surface of …; assay: as above; remark: listed apart in the source

Row | Binder | EC50, MOA-based assay (luciferase reporter under IL2 promoter), positive control in the run with CHO-expressed antibodies [1] | EC50, MOA-based assay (luciferase reporter under IL2 promoter) [2] | EC50 [3] | Kd [4] | Kd [5] | EC50 [6] | IC50 [7] | IC50 [8]
1 | B1 | 0.342 nM | 0.838 nM | 0.436 nM | 2.34 nM | 0.472 nM | 0.185 nM | 0.154 nM | 0.166 nM
2 | B2 | – | 2.11 nM | 0.511 nM | 3.5 nM | 4.2 nM | 0.725 nM | 0.179 nM | 0.607 nM
